Assay results from the supplement of paper PMC9942255.
Where “and” joins values, the source holds several entries; their conditions need not be identical. Identical values can stand only once.

Test system: Bacillus subtilis DB104 (SP-AmyQ fusion secretion)
Experiment: AmyQ secretion efficiency, weighted average sort bin (1 = best secretion, 10 = worst) (bin number (weighted average, 1-10)); higher = lower secretion efficiency
How it was run: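 Secretion score gives the read-frequency-weighted average bin number, normalised to beads per bin, with low-abundance sequences left out. A B. subtilis DB104 library expressing mature AmyQ fused to designed signal peptides, integrated at amyE, was encapsulated with fluorescein-starch at about 0.3 cells per ~65 nL alginate bead. Beads were grown about 13 h at room temperature, stained with nile red, and the occupied ones were sorted by large-particle flow cytometry into 10 equally populated bins by green/red fluorescence ratio before the amplicons from each bin were Illumina-sequenced.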

Sequence | AmyQ secretion efficiency
MLKKKWMVGLLAGCLAAGGFSYNQFATEN | 6.91
MSTLVLCVSILAVILSGVALTQLS | 6.38
MKTKTGFIFSAILTLSIFAPNETFAQTA | 1.63
MKKRITYSLLALLAVVAFAFTDSSAAKAAEA | 2.68
MKKWIYVVLVLSIAGIGGFSVHNASS | 5.06
MKLKKRVSMFLVALTMCGGLFVTPCKAVKT | 2.35
MRGKSAVLLSLIMLIAGFLISFQFQM | 7.36
MRGKSAVLLSLIMLIAGFLISFSFQD | 6.77
MMSRKILLSSALSLGMLVSAAPVLATSS | 3.37
MRKKRVITCVMAASLTLGSLLPAGYASAAPS | 2.5
MRSYIKVLTMCFLGLILFVPTNLADNS | 3.6
MKKKLAAGLTASAIVGTTLVVTPAEPATI | 6.62
MKLKSKLFVICLAAAAIFTAAGVSANAEALDF | 7.41 and 6.26
MRNLTKTSLLLAGLCTAAQSEFVTHASAEES | 4.61
MKKRLIAPMLLSAASLAFFAMSGSAQLAAY | 6.99
MLKRTSFVSSLFISSAVLLSILEDDDDDAHAQSA | 5.08
MKSKGSIMACLILFSFTITGDPNTETISAFSN | 4.93
MRKRKKRTIFAFLTGLMMFGTITAASASPD | 5.69
MNLRKILLSSALSLGMLVSAAPELATSS | 3.72
MMKKGLLAGALTATVLFGTCAVGVPGIISPKTAEAASQ | 1.35
MFKKHTISLLIIFLLASAVLAKPCEAHTV | 2.62
MKRKLLSSLAISALSLGLLVSAPTASFAATR | 2.21
MGLGKKLSVAVAASFMSLSISLPGKQAAEG | 4.55
MGMKKKLRKKRASAALGLALVGGGTWAAFN | 5.51
MKKKIVALLAVIAVVSGSSMAAAPAEAKTI | 3.11
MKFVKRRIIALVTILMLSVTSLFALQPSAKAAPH | 2.38

Sequence | AmyQ secretion efficiency
MPYLKRVLLLLVTGLFMSLFAVTATRSAQTG | 3.54
MKIRKILLSSALSFGMLISAVPALTAGT | 4.42
MKKRLIAPMLLSAASLAFFAMSGSAQHAAY | 7.18
MLKKKWMVGLLAGCLAAGGFSYNAFNTEN | 6.56
MRPVFPLILSAVLFLSCFFGARQTEASASPF | 2.82
MKKLALTAAAGLGLTALHSAPAAKAAPL | 3.02
MLKKIALTLCPAIVGSLLFFTAPASDHVS | 5.33
MSKKTWMVGLLAGCLAAGGFSYNAFATEN | 4.68
MTKKTSIILITSAWFLPLVCVLLISGWLAPAASASAQTT | 2.35
MKRLLSTLLIGIMLLEDEPSAFAKQD | 1.9
MTKKAWFLPLVCVLLISGWLAPAASASDQTT | 2.72
MNKKYFVLIVCIIFTSALFPTFSSVTHAQG | 1.15
MKVCQKSIVRTNFLVSLIIGTFVISVPFMANAQSD | 2.34
MNLRKILLSSALSLGMLPSAAPVLATSS | 2.71
MKKKRKKGGTGSAIVGTTLVVTPAEAATI | 7.88
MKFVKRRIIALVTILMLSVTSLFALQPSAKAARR | 1.74
MKLWMRKTLVVLFTIVTFGLVSPPAASMADKP | 1.85
MRKKRRRSLITLGLASVIGTSSFLIPFTSKTASAETL | 1.75
MKSKWMSGLLLVAVGFSFTQVMVHSGET | 6.94
MKKRLIAPMLLSAASLAFFAMSGSGAQAAAY | 3.78
MLCVMMLLFSAIAKRRVSAQAKDQ | 7.83
MKKTIMSFVAVAALSTTAFGAHISAKEI | 4.65
MKVLLSALLLLLFAFEPSASWKKL | 5.1
MRPVFPLRRRRRRFLSCFFGARQTEASASKR | 7.47
MKRLLVSLRVWMVFLMNWVTPDRKTQAAAVY | 6.81
MRIFKKAVFVIMISFLIATVNVNTAHAAEE | 1.56

Sequence | AmyQ secretion efficiency
MGGSILIQVMIMFTLLLTMAFSADAADS | 5.96
MKKGIIRFLLVSFVLFFALSTGITGSQAAPA | 4.62
MKLSVKIAGVLTVAAAAMEEKMYATAKGN | 7.66
MTMLRKKTGWILLLCIIPLFAFTVIASGKEV | 3.88
MMIMQCVICLSLLVFGTTAAHAEET | 2.38
MKKLLAAGIIGLLTVSIASPSFRAEK | 7.12
MKRLFMKASLVLFAVVFVFAVKGAPAKAADD | 3.6
MFNRLFRVCFLAALIMAFTLPNSYYAQKP | 7.48
MKSKGSIMACLILFSFTITTFINTETESAFSN | 7.01
MNFKKTVVSALSISALALSVSGVASSHEI | 5.89
MAIIIAIIAAVIVIAALITFNVFNASPG | 7.58
MFNRLFRVCFLAALIMAFVLTFFVYAQKP | 5.95
MSLWMSKTLVVLFTIVTFGLVSPPAALMADKP | 2.43
MTMLRKIRRKRKRLCIIPLFAFTVIASGKEV | 6.99
MSKLLAAGIIGLLTVSIASPSFAAEK | 3.64
MMIKQCVICLSLLVFGTIAIAHAEET | 4.16
MKKVLMAFIICLSLILSVLAAPPSGAKTESV | 5.06
MPIKKKVMMCKRVTLVFGSMSFPTLTNSGGFKE | 6.57
MNLRKILLSSALSLGMLVSAAPLLATSS | 4.04
MRNLTKTSLLLAGLCTAAQMVFVTHASADDE | 5.02
MRSYIKVLTMCFLGLILFVPTTAPSPGFALADNS | 4.85
MHLITAAGAVCLAVVLIAGCRFNEDQHQAEGENT | 5.34
MNLNTILLSSALSLGMLVSAAPVLATSS | 1.5
MGLKKRVSMFLVALTMCGGLFVTPAKAVKT | 3.29
MKNMSCKLVVSVTLFFSFLTIGPLCHAQNS | 1.32
MMKKLFHSTLIVLLFFSFFGVRKKRRKIHAKKQ | 6.23

Sequence | AmyQ secretion efficiency
MKKKRRKLALTAAAGLGLTALHSAPAAKAAPL | 2.69
MKKRFSLKKRRGLLFGLTSPAFAAEK | 8.62
MRKKTKNRLISSVRKTVVISSLLFPGAAGASSK | 4.05
MRNLTKTSLLLAGLCTAAQMVFVTHASAASK | 1.6
MKLWMRKTLVVLFTIVTFGLVSPPAALMFDKP | 3.85
MRKKRVITCVMAASLTLGSLLPAGYLSAKED | 4.34
MKKKQVSHARSTKTRRQFVIAVFHTIHASELTP | 8.17
MRSYIKVLTMCFLGLILFVVIATVSAIPTALADNS | 2.02
MKRLRRKRRRWMVFLMNWVTPDRKTAAAAVY | 6.85
MKSKWQRKRRSGLLLVAVGFSFTQVMVHAGET | 6.49
MKRKTLSSLAISALSLGLLVSAPTASFAAES | 2.4
MTKKAWFLTLVCVLLISGWLAPAASASAQTT | 1.56
MRPVFPLILSAVLFLSCFFGARQTEKSASKR | 6.8
MKKMKKSGKRFLLALTIHVGEASAVIV | 6.51
MKRIRIPMTLKRKRKRTIAPLSFASAEEN | 8.12
MKKRLIAPMLLSAASLAFFAMSGSAQAEED | 2.35
MKLKKRVSMFLVALTMCGGLFVTPAKAVST | 2.23
MIVIILLFISIIVFLVVTIQPQPS | 8.71
MRGKSAVLLSLIMLIAGFLIWFSFQM | 7.55
MKSKGSIMACLILFSFTITEISAFSN | 6.82
MKKQSMALVILGALGTSYISADSS | 5.2
MRPVFPLILSAVLFLSCFFGARQTEASRSKR | 2.45
MKRMIVRMKRPSLIVCLAFSSFSASARAASE | 6.12
MGMKKKLSLGVASAALGLALVGGGTWCAFN | 4.28
MKRKLLSSLAISALSLGLLVSAPTALFAAES | 2.49
MKKAFLVFLSVVLVTTVFLVKQQESVLQAKQL | 4.04

Sequence | AmyQ secretion efficiency
MRRKRKRTSLLLAGLCTAAQMVFVTHASAEES | 2.89
MKKRKRRNFKRFIAAFLVLALMISLVPADSLAKST | 2.3
MTGSSVITCVMAASLTLGSLLPAGYATAKED | 4.28
MKKGIIRFRRVSFVLFFALSTGITGVQAAPA | 2.36
MLKKKWMVGLLAGCLAAGGFSYNRFATEN | 6.33
MKVPKTMLLSTAAGLLLSLKKRSVSAHYV | 6.92
MGLGKKGTYRVAASFMSLSISLPGVQAAEG | 4.07
MRNLTKYYTTLAGLCTAAQMVFVTHASAEES | 3.01
MLKKIALTLCPAIVGSLLFFTAPPFSASAHVS | 4.02
MLKKKWMVFLLAICLAAFGFSYNAFATEN | 3.29
MKKWLIIAVSLAIAIVLFMYTKGEQKAAGM | 6.98
MKLKSKLLLSCLALSTVFVRKRIANAPTH | 6.91
MTKKAWFLPLVCVLLIEEEEEEAASASAQTT | 6.12
MKNMSCKLVVSVTLFFTIGPLAHAQNS | 2.62
MRGKSAVLLSLIMLIAGFLISFEFQM | 5.74
MIKRFSLIMMTGLLFGLTSPAFAAEK | 4.15
MKSKWMSGLLLVAVGFSFAIVMVHAGET | 5.38
MKKIVSILFMFGLVMGFSQFQPSTGFAADK | 3.91
MKLWMRKTLVVLFTIVTFGLVSPPAALMAATP | 2.71
MRKKCSVCRRKKVLLLSCLSGKSAYAATS | 7.48
MKKRITYSLLALLAVVAFAFTDSSKAKAAEE | 2.71
MKQCQKSRKRRRQFLVSLIIGTFVISVPFMANAQSD | 1.71
